# Test results as given in publication PMC7573591 (Nature Communications, 2020).
# B1: shcis-PT (soluble human cis-prenyltransferase complex, DHDDS-sNgBR) (Homo sapiens) (protein)
# chain 1: MSWIKEGELSLWERFCANIIKAGPMPKHIAFIMDGNRRYAKKCQVERQEGHSQGFNKLAETLRWCLNLGILEVTVYAFSIENFKRSKSEVDGLMDLARQKFSRLMEEKEKLQKHGVCIRVLGDLHLLPLDLQELIAQAVQATKNYNKCFLNVCFAYTSRHEISNAVREMAWGVEQGLLDPSDISESLLDKCLYTNRSPHPDILIRTSGEVRLSDFLLWQTSHSCLVFQPVLWPEYTFWNLFEAILQFQMNHSVLQKARDMYAEERKRQQLERDQATVTEQLLREGLQASGDAQLRRTRLHKLSARREERVQGFLQALELKRADWLARLGTASA
# chain 2: RGGSCLAAAHHRMRWRADGRSLEKLPVHMGLVITEVEQEPSFSDIASLVVWCMAVGISYISVYDHQGIFKRNNSRLMDEILKQQQELLGLDCSKYSPEFANSNDKDDQVLNCHLAVKVLSPEDGKADIVRAAQDFCQLVAQKQKRPTDLDVDTLASLLSSNGCPDPDLVLKFGPVDSTLGFLPWHIRLTEIVSLPSHLNISYEDFFSALRQYAACEQRLGK
# notes: full-length DHDDS 1-333 plus cytosolic NgBR 73-293 (no transmembrane domain); co-expressed in E. coli; TRX fusions, His- and Strep-tags cut by TEV
# B2: dehydrodolichyl diphosphate synthase (DHDDS), full-length human, residues 1-333 (enzyme, UniProt Q86SQ9 1-333, looked up)
# chain: B1 chain 1
# notes: human dehydrodolichyl diphosphate synthase (DHDDS), full length, residues 1-333, UniProt Q86SQ9; Cloned into pET-32b as a TRX fusion with a TEV site; tags and TRX removed by TEV protease before the final size-exclusion step; also called DHDD synthase; catalytic subunit of hcis-PT / shcis-PT / xcis-PT
# Key:
# [1] = substrate: C=C(C)CCO[P@@](=O)(O)OP(=O)(O)O; assay: purified protein; conditions: 10 μM FPP, 0.5 mM MgCl2, pH 7.5, 30 °C, 0.02% Triton X-100, labelled compound
# [2] = substrate: CC(C)=CCC/C(C)=C/CC/C(C)=C/CO[P@@](=O)(O)OP(=O)(O)O; assay: purified protein; format: biochemical, Homo sapiens; conditions: 100 μM IPP, 0.5 mM MgCl2, pH 7.5, 30 °C, 0.02% Triton X-100
# [3] = biological target: the molecule itself; assay: cross-linking; about 8 µM purified shcis-PT with 0.005% glutaraldehyde, room temperature, 15 min; products analysed by SDS-PAGE
Protein,Km [1] [µM],kcat [1] [s⁻¹],Km [2] [µM],kcat [2] [s⁻¹],binding result [3]
B1,6.23 ± 1.50,0.74 ± 0.02,0.11 ± 0.01,0.74 ± 0.02,
B2,,,,,binds
